These results are taken from patent US20240209100A1 (DIAGONAL THERAPEUTICS, published 2024).

Holding throughout (test): cell-based or functional assay
For assay [1], the target named is T1, IL-18 receptor (IL-18Rα/IL-18Rβ) overexpressed on HEK-Blue IL-18 cells (Homo sapiens (Human), UniProt Q13478 19-541; O95256 20-599).
T1 sequence 1: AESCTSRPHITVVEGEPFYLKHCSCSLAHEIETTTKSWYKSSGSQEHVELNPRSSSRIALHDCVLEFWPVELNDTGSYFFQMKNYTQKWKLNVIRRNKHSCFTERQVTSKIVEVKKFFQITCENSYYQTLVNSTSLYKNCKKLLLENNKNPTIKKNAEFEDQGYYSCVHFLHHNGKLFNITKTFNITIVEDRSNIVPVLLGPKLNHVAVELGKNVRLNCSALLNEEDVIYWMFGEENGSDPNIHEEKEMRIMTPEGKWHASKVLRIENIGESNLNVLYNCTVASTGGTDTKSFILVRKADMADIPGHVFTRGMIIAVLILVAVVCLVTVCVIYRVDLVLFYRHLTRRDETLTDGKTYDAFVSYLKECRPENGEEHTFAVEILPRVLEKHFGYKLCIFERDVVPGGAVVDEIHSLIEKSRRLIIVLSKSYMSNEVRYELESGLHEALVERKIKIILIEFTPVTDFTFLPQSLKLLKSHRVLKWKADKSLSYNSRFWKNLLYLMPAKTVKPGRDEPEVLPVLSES
T1 sequence 2: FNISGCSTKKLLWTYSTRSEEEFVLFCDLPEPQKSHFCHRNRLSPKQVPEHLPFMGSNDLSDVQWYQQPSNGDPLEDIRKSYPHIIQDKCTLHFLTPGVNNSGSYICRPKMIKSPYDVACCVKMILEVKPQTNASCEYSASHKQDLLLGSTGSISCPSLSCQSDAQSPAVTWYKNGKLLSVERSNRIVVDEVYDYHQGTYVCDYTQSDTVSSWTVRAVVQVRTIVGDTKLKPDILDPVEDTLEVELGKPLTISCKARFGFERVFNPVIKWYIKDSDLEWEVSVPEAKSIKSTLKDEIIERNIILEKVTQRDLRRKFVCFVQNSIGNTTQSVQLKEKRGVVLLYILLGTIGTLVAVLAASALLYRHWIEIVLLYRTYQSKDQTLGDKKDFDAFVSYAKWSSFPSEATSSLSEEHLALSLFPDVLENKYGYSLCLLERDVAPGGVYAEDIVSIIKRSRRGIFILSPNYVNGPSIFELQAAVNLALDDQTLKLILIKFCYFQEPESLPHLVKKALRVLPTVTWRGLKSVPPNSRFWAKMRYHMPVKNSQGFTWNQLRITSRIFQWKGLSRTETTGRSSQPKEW

Assay [2] addresses T1, IL-18 receptor (IL-18Rα/IL-18Rβ) …. The source holds these as a separate data set.
The target is the same in assay [3]. The source holds these as a separate data set.

B1: DGL023 (bispecific antibody, human IgG1, kappa, L234A L235A)
heavy 1: EVQLVESGGGLVQPGGSLRLSCAASGFTRSYYTIAWFRQAPGKEREGISCIRNTDGSTVVSDSVEGRFTISRDNAKNTVFLQMNSLKTEDTAVYYCAARNDRYGGLCSVRHNYEYWGQGTQVTVSSDKTHTCPPCPAPEAAGGPSVFLFPPKPKDTLMISRTPEVTCVVVDVSHEDPEVKFNWYVDGVEVHNAKTKPREEQYNSTYRVVSVLTVLHQDWLNGKEYKCKVSNKALPAPIEKTISKAKGQPREPQVCTLPPSRDELTKNQVSLSCAVKGFYPSDIAVEWESNGQPENNYKTTPPVLDSDGSFFLVSKLTVDKSRWQQGNVFSCSVMHEALHNHYTQKSLSLSPG
heavy 2: not shown
light: DIQMTQSPSSLSASVGDRVTITCQATEDIESFLAWYQQKPGQAPKLLIYRASTLESGVPSRFSGSGSGTDFTLTISSLQPEDFATYYCQSTVYGVNFVANAFGGGTKVVIKRTVAAPSVFIFPPSDEQLKSGTASVVCLLNNFYPREAKVQWKVDNALQSGNSQESVTEQDSKDSTYSLSSTLTLSKADYEKHKVYACEVTHQGLSSPVTKSFNRGEC
Consider B1, for which, in assay [1], the “HEK-Blue IL-18: Emax (Abs at 630 nm) at 10^8 (average of two replicates)” value amounted to 0.37 Abs at 630 nm.

B2: DGL207 (bispecific antibody)
heavy 1: QVQLVESGGGLVQAGGSLRLSCAASGRTFSKHAMGWFRQAPGKEREFVAAIDWSGGSTYYADSVKGRFTISRDNAKNTVYLQMDSLKPEDTAVYYCAADSYTDYAQLWLPELESEYDYWGQGTLVTVSSCPPCPAPEAAGAPSVFLFPPKPKDTLMISRTPEVTCVVVDVSHEDPEVKFNWYVDGVEVHNAKTKPREEQYNSTYRVVSVLTVLHQDWLNGKEYKCKVSNKALPAPIEKTISKAKGQPREPQVCTLPPSRDELTKNQVSLSCAVKGFYPSDIAVEWESNGQPENNYKTTPPVLDSDGSFFLVSKLTVDKSRWQQGNVFSCSVMHEALHNHYTQKSLSLSPGWSHPQFEK
heavy 2: QLQLVESGGGLVQAGGSLRLSCAASRSITFSHNVMGWYRQAPGKQRELVASIGSGGSTNYVDSVKGRATISRDNAKKTVYLQMNSLKPEDTAVYYCGVVVGVYRGSLGQGTLVTVSSCPPCPAPEAAGAPSVFLFPPKPKDTLMISRTPEVTCVVVDVSHEDPEVKFNWYVDGVEVHNAKTKPREEQYNSTYRVVSVLTVLHQDWLNGKEYKCKVSNKALPAPIEKTISKAKGQPREPQVYTLPPCRDELTKNQVSLWCLVKGFYPSDIAVEWESNGQPENNYKTTPPVLDSDGSFFLYSKLTVDKSRWQQGNVFSCSVMHEALHNHYTQKSLSLSPGEPEA
On to B2, for which the “EC50 (read off the curve), HEK Blue IL-18 SEAP reporter” value in assay [2] was about 0.5 nM. For the same molecule, in assay [3], the “HEK-Blue IL-18: Abs 405 at 100 nM” value was 2.6 Abs and the “HEK-Blue IL-18: Fold over Background” value is 11.4 fold.

B3: DGL333 (bispecific antibody)
heavy 1: EVQLLESGGGLVQPGGSLRLSCAASGRTFSKHAMGWFRQAPGKGLEFVSAIDWSGGSTYYADSVKGRFTISRDNSKNTVYLQMNSLRAEDTAVYYCAADSYTDYAQLWLPELESEYDYWGQGTLVTVSSCPPCPAPEAAGAPSVFLFPPKPKDTLYITREPEVTCVVVDVSHEDPEVKFNWYVDGVEVHNAKTKPREEQYNSTYRVVSVLTVLHQDWLNGKEYKCKVSNKALPAPIEKTISKAKGQPREPQVCTLPPSRDELTKNQVSLSCAVKGFYPSDIAVEWESNGQPENNYKTTPPVLDSDGSFFLVSKLTVDKSRWQQGNVFSCSVMHEALHNHYTQKSLSLSPG
heavy 2: QLQLLESGGGLVQPGGSLRLSCAASRSITFSHNVMGWYRQAPGKGRELVSSIGSGGSTNYVDSVKGRFTISRDNSKKTLYLQMNSLRAEDTAVYYCGVVVGVYRGSLGQGTLVTVSSCPPCPAPEAAGAPSVFLFPPKPKDTLYITREPEVTCVVVDVSHEDPEVKFNWYVDGVEVHNAKTKPREEQYNSTYRVVSVLTVLHQDWLNGKEYKCKVSNKALPAPIEKTISKAKGQPREPQVYTLPPCRDELTKNQVSLWCLVKGFYPSDIAVEWESNGQPENNYKTTPPVLDSDGSFFLYSKLTVDKSRWQQGNVFSCSVMHEALHNHYTQKSLSLSPG
As to B3, the “EC50 (read off the curve), HEK Blue IL-18 SEAP reporter” value in assay [2] was about 6 nM.
